Laboratory results: paper PMC7170535, “Inter-α-inhibitor heavy chain-1 has an integrin-like 3D structure mediating immune regulatory activities and matrix stabilization during ovulation” (The Journal of Biological Chemistry, 2020)
Numbering of substitutions follows the chain as printed.

B1: vitronectin (natural protein, UniProt P04004 20-478, looked up)
chain: DQESCKGRCTEGFNVDKKCQCDELCSYYQSCCTDYTAECKPQVTRGDVFTMPEDEYTVYDDGEEKNNATVHEQVGGPSLTSDLQAQSKGNPEQTPVLKPEEEAPAPEVGASKPEGIDSRPETLHPGRPQPPAEEELCSGKPFDAFTDLKNGSLFAFRGQYCYELDEKAVRPGYPKLIRDVWGIEGPIDAAFTRINCQGKTYLFKGSQYWRFEDGVLDPDYPRNISDGFDGIPDNVDAALALPAHSYSGRERVYFFKGKQYWEYQFQHQPSQEECEGSSLSAVFEHFAMMQRDSWEDIFELLFWGRTSAGTRQPQFISRDWHGVPGQVDAAMAGRIYISGMAPRPSLAKKQRFRHRNRKGYRSQRGHSRGRNQNSRRPSRATWLSLFSSEESNLGANNYDDYRMDWLVPATCEPIQSVFFFSGDKYYRVNLRTRRVDTVDPPYPRSIAQYWLGCPAPGHL
notes: Vitronectin; source: bought: PeproTech
B2: fibronectin type III repeats 13 and 14 (cFN13–14) (domain or fragment, human, UniProt P02751-1 1812-1991, looked up)
chain: ENVSPPRRARVTDATETTITISWRTKTETITGFQVDAVPANGQTPIQRTIKPDVRSYTITGLQPGTDYKIYLYTLNDNARSSPVVIDASTAIDAPSNLRFLATTPNSLLVSWQPPRARITGYIIKYEKPGSPPREVVPRPRPGVTEATITGLEPGTEYTIYVIALKNNQKSEPLIGRKKT
notes: Fibronectin, human, amino acid residues 1812-1991 (type III repeats 13 and 14); Mass spectrometry matched the construct with the N-terminal methionine removed; the monomeric protein was separated from dimeric cFN13–14 on heparin; source: E. coli BL21(DE3) pLysS, purified (nickel Sepharose, HisTrap HP, HiTrap heparin HP; monomeric form)
B3: TGFβ3-LAP, small latent complex of TGFβ3 (complex)
chain 1: LSTCTTLDFGHIKKKRVEAIRGQILSKLRLTSPPEPTVMTHVPYQVLALYNSTRELLEEMHGEREEGCTQENTESEYYAKEIHKFDMIQGLAEHNELAVCPKGITSKVFRFNVSSVEKNRTNLFRAEFRVLRVPNPSSKRNEQRIELFQILRPDEHIAKQRYIGGKNLPTRGTAEWLSFDVTDTVREWLLRRESNLGLEISIHCPCHTFQPNGDILENIHEVMEIKFKGVDNEDDHGRGDLGRLKKQKDHHNPHLILMMIPPHRLDNPGQGGQRKKR
chain 2: ALDTNYCFRNLEENCCVRPLYIDFRQDLGWKWVHEPKGYYANFCSGPCPYLRSADTTHSTVLGLYNTLNPEASASPCCVPQDLEPLTILYYVGRTPKVEQLSNMVVKSCKCS
B4: TGFβ2-LAP, small latent complex of TGFβ2 (complex)
chain 1: LSTCSTLDMDQFMRKRIEAIRGQILSKLKLTSPPEDYPEPEEVPPEVISIYNSTRDLLQEKASRRAAACERERSDEEYYAKEVYKIDMPPFFPSENAIPPTFYRPYFRIVRFDVSAMEKNASNLVKAEFRVFRLQNPKARVPEQRIELYQILKSKDLTSPTQRYIDSKVVKTRAEGEWLSFDVTDAVHEWLHHKDRNLGFKISLHCPCCTFVPSNNYIIPNKSEELEARFAGIDGTSTYTSGDQKTIKSTRKKNSGKTPHLLLMLLPSYRLESQQTNRRKKR
chain 2: ALDAAYCFRNVQDNCCLRPLYIDFKRDLGWKWIHEPKGYNANFCAGACPYLWSSDTQHSRVLSLYNTINPEASASPCCVSQDLEPLTILYYIGKTPKIEQLSNMIVKSCKCS
B5: recombinant inter-α-inhibitor heavy chain 1 (rHC1), ΔvWFA mutant lacking residues 288-478 (natural protein, human, UniProt P19827 35-672, looked up)
chain: SKSSEKRQAVDTAVDGVFIRSLKVNCKVTSRFAHYVVTSQVVNTANEAREVAFDLEIPKTAFISDFAVTADGNAFIGDIKDKVTAWKQYRKAAISGENAGLVRASGRTMEQFTIHLTVNPQSKVTFQLTYEEVLKRNHMQYEIVIKVKPKQLVHHFEIDVDIFEPQGISKLDAQASFLPKELAAQTIKKSFSGKKGHVLFRPTVSQQQSCPTCSTSLLNGHFKVTYDVSRDKICDLLVANNHFAHFFAPQNLTLLVDVDLQYPQDAVLALTQNHHKQYYEGSEIVVAGRIADNKQSSFKADVQAHGEGQEFSITCLVDEEEMKKLLRERGHMLENHVERLWAYLTIQELLAKRMKVDREERANLSSQALQMSLDYGFVTPLTSMSIRGMADQDGLKPTIDKPSEDSPPLEMLGPRRTFVLSALQPSPTHSSSNTQRLPDRVTGVDTD
notes: source: expressed and purified as described previously (58)
B6: recombinant inter-α-inhibitor heavy chain 1 (rHC1), wild type (natural protein, human, UniProt P19827 35-672, looked up)
chain: SKSSEKRQAVDTAVDGVFIRSLKVNCKVTSRFAHYVVTSQVVNTANEAREVAFDLEIPKTAFISDFAVTADGNAFIGDIKDKVTAWKQYRKAAISGENAGLVRASGRTMEQFTIHLTVNPQSKVTFQLTYEEVLKRNHMQYEIVIKVKPKQLVHHFEIDVDIFEPQGISKLDAQASFLPKELAAQTIKKSFSGKKGHVLFRPTVSQQQSCPTCSTSLLNGHFKVTYDVSRDKICDLLVANNHFAHFFAPQNLTNMNKNVVFVIDISGSMRGQKVKQTKEALLKILGDMQPGDYFDLVLFGTRVQSWKGSLVQASEANLQAAQDFVRGFSLDEATNLNGGLLRGIEILNQVQESLPELSNHASILIMLTDGDPTEGVTDRSQILKNVRNAIRGRFPLYNLGFGHNVDFNFLEVMSMENNGRAQRIYEDHDATQQLQGFYSQVAKPLLVDVDLQYPQDAVLALTQNHHKQYYEGSEIVVAGRIADNKQSSFKADVQAHGEGQEFSITCLVDEEEMKKLLRERGHMLENHVERLWAYLTIQELLAKRMKVDREERANLSSQALQMSLDYGFVTPLTSMSIRGMADQDGLKPTIDKPSEDSPPLEMLGPRRTFVLSALQPSPTHSSSNTQRLPDRVTGVDTD
notes: Monomer in EDTA, monomer-dimer equilibrium in Mg2+ or Mn2+; also called rHC1 (WT); WT rHC1; source: expressed and purified as described previously (58)

Legend:
[1] = target: B6; experiment: SPR; 1,500 RU rHC1 proteins immobilised on a C1 chip by amide cross-linking; ligand as analyte; HEPES-buffered saline pH 7.5, 0.05% Tween 20, 2 mM Mg2+, 2 mM Mn2+; 50 μl/min; multicycle kinetics, 1:1 Langmuir; settings: both partners purified
[2] = target: T1, recombinant inter-α-inhibitor heavy chain 1 (rHC1), D298A MIDAS mutant (human, UniProt P19827 35-672, D298A); experiment: as above; settings: both partners purified
T1 construct: source: expressed and purified as described previously (58)
T1 sequence (looked up): B6 chain with D264A

[3] = target: B6; experiment: SPR; 1,500 RU rHC1 proteins immobilised on a C1 chip by amide cross-linking; ligand as analyte; HEPES-buffered saline pH 7.5, 0.05% Tween 20, 10 mM EDTA; 50 μl/min; multicycle kinetics, 1:1 Langmuir; settings: both partners purified
[4] = target: T1, recombinant inter-α-inhibitor heavy …; experiment: as above; settings: both partners purified
[5] = target: B5; experiment: SPR; 1,000 RU rHC1 proteins immobilised on a C1 chip; cFN13–14 at 7.5-120 nM as analyte; HEPES-buffered saline pH 7.4, 0.05% Tween 20, no added metal ions or EDTA; 30 μl/min; single cycle kinetics, 1:1 Langmuir; settings: both partners purified
[6] = target: B6; experiment: as above; settings: both partners purified
[7] = target: T1, recombinant inter-α-inhibitor heavy …; experiment: as above; settings: both partners purified
vitronectin = target: B1; experiment: SPR; 1,500 RU rHC1 proteins immobilised on a C1 chip by amide cross-linking; ligand as analyte; HEPES-buffered saline pH 7.5, 0.05% Tween 20, 10 mM EDTA; 50 μl/min; multicycle kinetics, 1:1 Langmuir; settings: both partners purified
[8] = target: the molecule itself; experiment: AUC; equilibrium AUC; rHC1 at 4, 11 and 22 μM with 0.1, 0.5, 1 or 5 mM MgCl2; 20 °C; global fit to a monomer–dimer model; dimer to monomers
[9] = target: the molecule itself; experiment: SAXS; rHC1 proteins at 1.25, 2.5 and 5.0 mg/ml in HEPES-buffered saline pH 7.5 with 5 mM MgCl2

In the case of B1, the Kd [1] is reported as 0.118 nM, the Kd [2] is reported as 0.096 nM and the Kd [3] is reported as 0.192 nM. For the same binder, the Kd [4] was 0.138 nM.

In the case of B2, the Kd [5] is reported as 16.3 nM, the Kd [6] is reported as 14 nM and the Kd [7] is reported as 15.7 nM.

Work on B3 yielded a Kd [1] of 9.9 nM and a Kd [2] of 3.1 nM.

Binder B4 has a Kd [1] of 8.8 nM and a Kd [2] of 12.9 nM.

B5 was tested, and the Kd (vitronectin) was 0.097 nM.

For B6, the Kd [8] was 35300 nM and the “stoichiometry N” value [9] was 2.
